What was measured:
[1] = molecular target: the molecule itself; assay: dynamic light scattering; ~0.2 mg/ml, room temperature, size distribution after SEC purification
[2] = molecular target: the molecule itself; assay: crystal structure; His-MBP-ApoE4M ~8 mg/ml, hanging drop vapour diffusion; four crystals in two space groups (P212121, P3121); dimeric unit of two NTDs (chains A and B) from crystal packing contacts

| Protein | binding result [1] | binding result [2] |
| --- | --- | --- |
| APOE3M-AP (domain or fragment, human, UniProt P02649 42-317, looked up, apolipoprotein E, isoform ApoE3, human, residues 1-23 (helices N1 and N2) deleted, with the five monomerizing mutations; Truncated variants were cloned into NdeI/BamHI of pET-21b; also called ApoEM-AP; aggregation-prone ApoEM; source: E. coli BL21(DE3), purified (Ni-NTA, 3C protease cleavage, SEC); not shown: His, N-terminal, cleaved; thioredoxin, N-terminal, cleaved) QRWELALGRFWDYLRWVQTLSEQVQEELLSSQVTQELRALMDETMKELKAYKSELEEQLTPVAEETRARLSKELQAAQARLGADMEDVCGRLVQYRGEVQAMLGQSTEELRVRLASHLRKLRKRLLRDADDLQKRLAVYQAGAREGAERGLSAIRERLGPLVEQGRVRAATVGSLAGQPLQERAQAWGERLRARMEEMGSRTRDRLDEVKEQVAEVRAKLEEQAQQIRLQAEAAQARLKSRFEPLAEDMQRQWAGQVEKVQAAEGTSAAPVPSDNH | binds | – |
| APOE4M-AP (domain or fragment, human, UniProt P02649 42-317, looked up, apolipoprotein E, isoform ApoE4, human, residues 1-23 (helices N1 and N2) deleted, with the five monomerizing mutations; Truncated variants were cloned into NdeI/BamHI of pET-21b; also called ApoEM-AP; aggregation-prone ApoEM; source: E. coli BL21(DE3), purified (Ni-NTA, 3C protease cleavage, SEC); not shown: His, N-terminal, cleaved; thioredoxin, N-terminal, cleaved) QRWELALGRFWDYLRWVQTLSEQVQEELLSSQVTQELRALMDETMKELKAYKSELEEQLTPVAEETRARLSKELQAAQARLGADMEDVRGRLVQYRGEVQAMLGQSTEELRVRLASHLRKLRKRLLRDADDLQKRLAVYQAGAREGAERGLSAIRERLGPLVEQGRVRAATVGSLAGQPLQERAQAWGERLRARMEEMGSRTRDRLDEVKEQVAEVRAKLEEQAQQIRLQAEAAQARLKSRFEPLAEDMQRQWAGQVEKVQAAEGTSAAPVPSDNH | binds | – |
| ApoE4 N-terminal domain (NTD) as seen in the crystals grown from His-MBP-ApoE4M (domain or fragment, human, UniProt P02649 40-183, looked up, apolipoprotein E, isoform ApoE4 (R112/R158), human; only residues ~22-165 (NTD) were obtained in the structures; the five mutations lie outside that range; also called ApoE4 NTD; source: E. coli BL21(DE3), purified (Ni-NTA, SEC; no cleavage step)) SGQRWELALGRFWDYLRWVQTLSEQVQEELLSSQVTQELRALMDETMKELKAYKSELEEQLTPVAEETRARLSKELQAAQARLGADMEDVRGRLVQYRGEVQAMLGQSTEELRVRLASHLRKLRKRLLRDADDLQKRLAVYQAG | – | binds |

Source: PMC10245438, “Domino-like effect of C112R mutation on ApoE4 aggregation and its reduction by Alzheimer’s Disease drug candidate” (Molecular Neurodegeneration, 2023)
